Target: T1, DEC205 on MutuDC 1950 cells (murine dendritic cell line, DEC205+) (murine, UniProt Q60767 28-1723)
T1 construct: whole, on cells; also called CD205; dendritic cells
Assay: flow cytometry, MutuDC 1950 cells with parasites at MOI 2 on ice, anti-gp23 mAb

Binder | multiplication factor of the percentage of T. gondii binding to mutuDC cells (against RH strain) [fold]
scFv anti-DEC205 fused to SAG1 (DC2 SAG1) protein, membrane anchored SAG1 ScFv DEC 205 including a HA tag, on the surface of T. gondii RH-DC2-SAG1 tachyzoites (scFv, also called RH-DEC205) scFv: YPYDVPDYAQVQLQESGGGLVQPGGSLRLSCAASGFTFNDFYMNWIRQPPGQAPEWLGVIRNKGNGYTTEVNTSVKGRFTISRDNTQNILYLQMNSLRAEDTAIYYCARGGPYYYSGDDAPYWGQGVMVTVSSGGGGSGGGGSGGGGSDIQMTQSPSSLSASVGDRVTITCRASQNIKGWLAWYQQKSGNAPQLLIYKASSLQSGVPSRFSGSGSGTDYIFTISNLQPEDIATYYCQHYQSFPWTFGGGTKLELKGGGASPLVANQVVTCPDKKSTAAVILTPTENHFTLKCPKTALTEPPTLAYSPNRQICPAGTTSSCTSKAVTLSSLIPEAEDSWWTGDSASLDTAGIKLTVPIEKFPVTTQTFVVGCIKGDDAQSCMVTVTVQARASSVVNNVARCSYGADSTLGPVKLSAEGPTTMTLVCGKDGVKVPQDNNQYCSGTTLTGCNEKSFKDILPKLTENPWQGNASSDKGATLTIKKEAFPAESKSVIIGCTGGSPEKHHCTVKLEFA | ≥ 2.5
scFv anti-DEC205 (DC2) protein, membrane anchored ScFv DEC 205 including a HA tag, on the surface of T. gondii RH-DC2 tachyzoites (scFv, also called SS SAG1-HA-ScFv-linker-GPI; RH-DEC205) scFv: YPYDVPDYAQVQLQESGGGLVQPGGSLRLSCAASGFTFNDFYMNWIRQPPGQAPEWLGVIRNKGNGYTTEVNTSVKGRFTISRDNTQNILYLQMNSLRAEDTAIYYCARGGPYYYSGDDAPYWGQGVMVTVSSGGGGSGGGGSGGGGSDIQMTQSPSSLSASVGDRVTITCRASQNIKGWLAWYQQKSGNAPQLLIYKASSLQSGVPSRFSGSGSGTDYIFTISNLQPEDIATYYCQHYQSFPWTFGGGTKLELKGGGAS | ≥ 2.5

Source: US20220233607A1 (UNIVERSIT DE TOURS, published 2022)
